The source of these data is publication PMC9180478.

One assay concerns the target Myc-PCNA (UniProt P12004). Description: FLAG-immunoprecipitation, immunoblot. As to conditions: transient co-expression with Myc-PCNA; parent: 1.00. On the technique in general: Immunoblotting shows a protein as a band on a membrane.
The next assay addresses Myc-PCNA (C81R) (UniProt P12004). In words: FLAG-immunoprecipitation, immunoblot. As to conditions: transient co-expression with Myc-PCNA (C81R); parent: 1.00.

With “FLAG-ATAD5 (812–1844) (from UniProt Q96QE3) 815SSQD818 to GGAA”, the ratio to parent with Myc-PCNA was 0.91.

For “FLAG-ATAD5 (812–1844) (from UniProt Q96QE3) 815SSQD818 to GGAA; S824A; Q825A; D826A”, the ratio to parent was 0.91 with Myc-PCNA (C81R) and 1.35 in the assay with Myc-PCNA.
